Laboratory results taken from CN110981959A (SHENZHEN PREGENE BIOPHARMACEUTICAL CO LTD, dated 2020).

Legend:
[1] = target: CD47 on HL-60 cells (细胞膜表面表达的CD47抗原) (UniProt Q08722); test: flow cytometry, 20 μg/ml nanobody on HL-60 cells, anti-His staining
[2] = target: CD47抗原 (北京义翘神州, 货号12283-H08H) (UniProt Q08722); test: ELISA of induced culture supernatants on CD47 antigen (clone screening)
[3] = target: Human CD47/Biotinylated (human, UniProt Q08722 19-139, limits assumed, biotinylated (site not stated)); test: BLI-type kinetics, biotinylated human CD47 captured on SA probes, antibody at 73.5-588.2 nM
Chain of Human CD47/Biotinylated (Q08722 19-139 limits assumed): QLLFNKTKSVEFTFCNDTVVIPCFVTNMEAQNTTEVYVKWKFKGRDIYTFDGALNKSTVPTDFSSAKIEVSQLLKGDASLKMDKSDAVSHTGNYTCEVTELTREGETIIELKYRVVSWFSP

Row | 结合率 [1] | OD值 over negative control (fold) [2] | Kd [3] | Binder
1 | > 99% | > 5 fold | < 1 nM | CD47单域抗体 SEQ ID NO: 1 (VHH, Expressed from pSJF2 in E. coli, purified on Ni column and detected with anti-His antibody, so it carried a His tag; also called CD47纳米抗体) VHH: DVKLVESGGGLVQPGGSLRLSCAASGFTVSSYSMRWYRQVPGKERELIARITSTGQPIEYGESVKGRFTISRDNAKNTLYLEMNALKPEDTAVYYCWGAGYWGQGTQVTVSS
2 | > 99% | > 5 fold | < 1 nM | CD47单域抗体 SEQ ID NO: 4 (VHH, His-tagged sdAb from pSJF2 in E. coli (Ni purification, anti-His detection); also called CD47纳米抗体) VHH: DVQLVESGGGSVQPGGSLTLSCAASGFTVSNYSMRWYRQAPGKERELIARITSTGVPIEYADSVKGRFTISRDNAKNTLYLEMNGLKPEDTAVYYCWGAAYWGQGTQVTVSS
3 | > 99% | > 5 fold | < 1 nM | CD47单域抗体 SEQ ID NO: 8 (VHH, His-tagged sdAb from pSJF2 in E. coli (Ni purification, anti-His detection); also called CD47纳米抗体) VHH: DVQLEESGGGLVQPGGSLRLSCAASGFTVSSYSMRWYRQAPGKERELVARITSTGEPIEYVESVKGRFTISRDNALNTLNLEMNDLKPEDTAVYYCWGAGYWGQGTQVTVSS
4 | > 99% | > 5 fold | < 1 nM | CD47单域抗体 SEQ ID NO: 10 (VHH, His-tagged sdAb from pSJF2 in E. coli (Ni purification, anti-His detection); also called CD47纳米抗体) VHH: GVKLVESGGGLVQPGGSLTLSCVASGFDFNSAHMRWYRQGPGKEREMVASISTTGGVTIYEDSVKGRFTISRDNADNTAYLRMNSLKPEDTAVYYCRAYGFGIDYWGQGTQVTVSS
5 | > 99% | > 5 fold | < 1 nM | CD47单域抗体 SEQ ID NO: 2 (VHH, His-tagged sdAb from pSJF2 in E. coli (Ni purification, anti-His detection); also called CD47纳米抗体) VHH: QVKLEESGGGLVQPGESLRLSCVASGFAFSSALMRWYRQAPGKERELVASITTAGGITGYADSVKGRFTISRDNAENTLYLQMNSLKPEDTAVYYCRAYGFQLDNWGQGTQVTVSS
6 | > 99% | > 5 fold | < 1 nM | CD47单域抗体 SEQ ID NO: 5 (VHH, His-tagged sdAb from pSJF2 in E. coli (Ni purification, anti-His detection); also called CD47纳米抗体) VHH: GVQLVESGGGLVQPGESLRLSCVASGFAFSSALMRWYRQAPGKERELVASVTTTGGITGYADSVKGRFTISRDNAENTLYLRMNSLKPEDTAVYYCRAYGFGLDSWGQGTQVTVSS
7 | > 99% | > 5 fold | < 1 nM | CD47单域抗体 SEQ ID NO: 3 (VHH, His-tagged sdAb from pSJF2 in E. coli (Ni purification, anti-His detection); also called CD47纳米抗体) VHH: HVQLEESGGGLVQPGGSLRLSCKASGLTFASYSMRWYRQAPGQERELVARLSSSGVPIEYVDSVKGRFTASRDDAKSTLYLQMNSLKPEDTAMYYCWIANYWGQGTQVTVSS
8 | > 99% | > 5 fold | < 1 nM | CD47单域抗体 SEQ ID NO: 6 (VHH, His-tagged sdAb from pSJF2 in E. coli (Ni purification, anti-His detection); also called CD47纳米抗体) VHH: QVKLEESGGGLVQPGGSLRLSCAASGLTFSSYSMRWYRQAPGQERELVARLTSSGEPIEYADSVKGRFTASRDNAKSTVYLQMNSLKPEDTAMYYCWIANYWGQGTQVTVSS
9 | > 99% | > 5 fold | < 1 nM | CD47单域抗体 SEQ ID NO: 7 (VHH, His-tagged sdAb from pSJF2 in E. coli (Ni purification, anti-His detection); also called CD47纳米抗体) VHH: QVKLEESGGGLVQPGESLRLSCVASGFTFSDAHMRWYRQAPGKEREMVASISTTGSITIYADSVKGRFTISRDNDEKTVYLRMNSLKPEDTAAYYCRAYGFQIDSWGQGTQVTVSS
10 | > 99% | > 5 fold | < 1 nM | CD47单域抗体 SEQ ID NO: 9 (VHH, His-tagged sdAb from pSJF2 in E. coli (Ni purification, anti-His detection); also called CD47纳米抗体) VHH: AVKLVESGGGLVQPGGSLRLSCAASGFTVSNNNLRWYRQAPGKERELVAMITSAGNTNYADAVKGRSTISRDNAKNTLYLEMYRLKPEDTAVYYCWGAAHWGRGTQVTVSS
